We go through 6 molecules from patent publication US20200247894A1 (Regeneron, published 2020).

The chains are these.
T1: Human IL2Rγ extracellular domain expressed with a C-terminal myc-myc-hexahistidine tag (human)
T1 construct: also called hIL-2Rg-MMH; hIL-2RG-MMH
T1 chain: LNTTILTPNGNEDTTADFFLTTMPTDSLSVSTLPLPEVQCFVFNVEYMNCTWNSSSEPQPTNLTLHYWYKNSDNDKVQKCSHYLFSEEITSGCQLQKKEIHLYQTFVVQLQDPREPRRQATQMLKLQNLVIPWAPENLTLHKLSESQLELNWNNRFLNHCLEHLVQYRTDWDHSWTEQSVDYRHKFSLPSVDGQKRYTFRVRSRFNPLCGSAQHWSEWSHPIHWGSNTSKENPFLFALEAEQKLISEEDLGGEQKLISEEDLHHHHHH

T2: Macaca fascicularis IL2Rγ extracellular domain expressed with a C-terminal myc-myc-hexahistidine tag (Macaca fascicularis)
T2 construct: also called mfIL-2Rg-MMH; mfIL-2RG-MMH
T2 chain: T1 chain with T14A, A16T, T22S, H141R, T228S

B1: H4H12913P2 (antibody, human IgG4 S228P, kappa, V domains shown)
VH: EVQLVESGGGVVRPGGSLRLSCAASGFTFDDYGMSWVRQAPGKGLEWISSINRNGGSADYADSVKGRFTISRDNAKNSLFLQMSSLRAEDTALYHCASGEFRFDYWGQGTLVTVSS
VL: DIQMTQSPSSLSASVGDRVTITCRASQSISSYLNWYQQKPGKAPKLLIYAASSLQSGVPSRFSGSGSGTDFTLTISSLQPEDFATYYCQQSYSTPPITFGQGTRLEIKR
notes: anti-IL2Rγ monoclonal antibody expressed with human IgG4 Fc
B2: H4H12924P2 (antibody, human IgG4 S228P, kappa, V domains shown)
VH: EVQLVESGGGLVQPGRSLRLSCAASGFTLEDYAMHWVRQAPGKGLEWVSGISWNRGSTGYADSVKGRFTISRDNAKNSLYLQMTSLRAEDTALYYCAKGFYSMDVWGQGTTVTVSS
VL: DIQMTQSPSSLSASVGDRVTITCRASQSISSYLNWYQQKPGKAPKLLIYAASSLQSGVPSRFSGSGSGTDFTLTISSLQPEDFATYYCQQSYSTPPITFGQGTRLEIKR
notes: as for B1
B3: H4H13545P2 (antibody, human IgG4 S228P, kappa, V domains shown)
VH: QVQLQQSGPGLVKPSQTLSLTCDISGDSVSSNIATWNWIRQSPSRGLEWLGRTYYRSKWYKDYAVSVKSRITINPDTSKNQFSLQVNSVTPEDTAVYYCARMTGPRYYFEYWGQGTLVTVSS
VL: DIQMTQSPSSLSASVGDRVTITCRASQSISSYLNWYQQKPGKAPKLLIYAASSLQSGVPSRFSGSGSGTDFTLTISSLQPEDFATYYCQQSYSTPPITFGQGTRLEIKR
notes: as for B1
B4: H4H12922P2 (antibody, human IgG4 S228P, kappa, V domains shown)
VH: QVQLVESGGGVVKPGGSLRLSCAASGFTFSNSGIHWVRQAPGKGLEWVALISYAGSNKYYADSVKGRFTISRDNSKNTLSLQMNSLRAEDTAVYYCAKEVWTGTYDSFDMWGRGTMVTVSS
VL: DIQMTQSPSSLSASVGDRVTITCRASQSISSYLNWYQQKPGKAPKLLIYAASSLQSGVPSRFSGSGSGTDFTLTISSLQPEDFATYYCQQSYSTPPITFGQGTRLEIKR
notes: anti-IL2Rγ monoclonal antibody expressed with human IgG4 Fc; also called REGN7256
B5: H4H13544P2 (antibody, human IgG4 S228P, kappa, V domains shown)
VH: QLQLQESGPGLVKPSETLSLTCTVSGGSISIKNYYWGWIRQPPGKGLEWIGSIYYSGTTYYNPSLKSRVTISVDTSKNQFSLKLSSVTAADTAVYHCARHGYSYGHGWFDPWGQGTLVTVSS
VL: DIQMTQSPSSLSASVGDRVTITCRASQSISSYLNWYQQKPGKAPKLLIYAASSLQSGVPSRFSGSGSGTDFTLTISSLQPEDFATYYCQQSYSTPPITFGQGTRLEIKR
notes: as for B1
B6: H4H13541P (antibody, human IgG4 S228P, kappa, V domains shown)
VH: EVQLVESGGGVVRPGGSLRLSCAASGFIFDDYDMSWVRQPPGRGLEWVSGIDWFGGTRGYADSMKGRFTISRDNAKNSLYLQMNSLRVEDTAFYYCARGGAIVGAVTPFDYWGQGTLVTVSS
VL: DIQMTQSPSSLSASVGNRVTLSCRASQSINTYLSWYQQRPGKAPKLLIYAASSLQSGVPSRFSGSGAGTDFTLTISSLQPEDFATYYCQQSYSAPLTFGGGTKVEIKR
notes: as for B1

Where a chain is given by its changes, count along the chain named.

For the first assay, the target named is T1, Human IL2Rγ extracellular domain …. Description: SPR Biacore 4000, mAb captured by anti-hFc, HBS-ET, 25C. Here is the method: (§1) Equilibrium dissociation constants (KD values) for IL-2Rγ binding to purified anti-IL2Rγ monoclonal antibodies were determined using a Biacore 4000 instrument equipped with a real-time surface plasmon resonance biosensor. All binding studies were performed in 10 mM HEPES, 150 mM NaCl, 3 mM EDTA, and 0.05% v/v Surfactant Tween-20, pH 7.4 (HBS-ET) running buffer at 25° C. and 37° C. The Biacore sensor surface was first derivatized by amine coupling with a monoclonal mouse anti-human Fc antibody (GE, # BR-1008-39) to capture anti-IL2Rγ monoclonal antibodies.
(§2) The dissociation of monoclonal antibody bound IL2Rγ reagents were monitored for 8-10 minutes in HBS-ET running buffer. Kinetic association (kₐ) and dissociation (kd) rate constants were determined by fitting the real-time sensorgrams to a 1:1 binding model using Scrubber 2.0c curve fitting software. Binding dissociation equilibrium constants (KD) and dissociative half-lives (t_{1/2}) were calculated from the kinetic rate constants as: […]
B1: the “100 nM Ag Bound” value is 42 RU, the Kd amounted to 11.2 nM, the koff amounted to 0.000691 s⁻¹ and the kon stood at 62000 M⁻¹ s⁻¹. The molecule further yielded a t1/2 of 17 min.

For the molecule B2, the “100 nM Ag Bound” value was found to be 78 RU, the Kd is 5.38 nM, the koff is 0.00174 s⁻¹ and the kon came out at 322000 M⁻¹ s⁻¹. The molecule further yielded a t1/2 of 7 min.

As for B3, the “100 nM Ag Bound” value is 12 RU, the Kd was determined as 336 nM, the koff stood at 0.0575 s⁻¹ and the kon amounted to 171000 M⁻¹ s⁻¹. Also, the t1/2 is 0.2 min.

Regarding B4, the “100 nM Ag Bound” value amounted to 79 RU, the Kd worked out at 1.3 nM, the koff was found to be 0.000386 s⁻¹ and the kon was determined as 297000 M⁻¹ s⁻¹. The same molecule yielded a t1/2 of 30 min.

Turning to B5, the “100 nM Ag Bound” value was 51 RU, binding was put at a Kd of 28.7 nM, the koff was found to be 0.00135 s⁻¹ and the kon was determined as 47200 M⁻¹ s⁻¹. Moreover, the t1/2 turned out to be 9 min.

On to B6, for which the “100 nM Ag Bound” value worked out at 72 RU, binding was characterised by a dissociation constant (Kd) of 2.41 nM, the koff amounted to 0.000252 s⁻¹ and the kon stood at 105000 M⁻¹ s⁻¹. Besides, the t1/2 was found to be 46 min.

The target of the next assay is T2, Macaca fascicularis IL2Rγ extracellular …. Described as above. Here is the method: as §1, §2
As for B1, the “100 nM Ag Bound” value turned out to be 34 RU, the Kd was determined as 14.1 nM, the koff was 0.000633 s⁻¹ and the kon is 44900 M⁻¹ s⁻¹. For the same molecule, the t1/2 amounted to 18 min.

Consider B2, for which the “100 nM Ag Bound” value was 73 RU, the Kd worked out at 6.58 nM, the dissociation rate constant (koff) turned out to be 0.00165 s⁻¹ and the kon worked out at 251000 M⁻¹ s⁻¹. Moreover, the t1/2 was determined as 7 min.

For the molecule B3, the “100 nM Ag Bound” value came to 26 RU, binding was put at a Kd of 143 nM, the koff is 0.014 s⁻¹ and the kon is 97800 M⁻¹ s⁻¹. Moreover, the t1/2 was 0.8 min.

In the case of B4, the “100 nM Ag Bound” value was found to be 76 RU, the Kd turned out to be 1.64 nM, the koff came to 0.000386 s⁻¹ and the kon was found to be 235000 M⁻¹ s⁻¹. The same molecule came in with a t1/2 of 30 min.

With B5, the “100 nM Ag Bound” value turned out to be 60 RU, the Kd turned out to be 24.6 nM, the koff came out at 0.00127 s⁻¹ and the kon came out at 51700 M⁻¹ s⁻¹. The t1/2 came out at 9 min.

As for B6, the “100 nM Ag Bound” value worked out at 82 RU, the Kd came out at 1.85 nM, the koff came out at 0.000315 s⁻¹ and the kon came to 170000 M⁻¹ s⁻¹. The molecule further showed a t1/2 of 37 min.

A further assay concerns the target T1, Human IL2Rγ extracellular domain …. Kind of assay: SPR Biacore 4000, mAb captured by anti-hFc, HBS-ET, 37C. As for the experimental part: as §1, §2
On to B1, for which the “100 nM Ag Bound” value came out at 24 RU, the Kd amounted to 33.4 nM, the koff is 0.00348 s⁻¹ and the kon amounted to 104000 M⁻¹ s⁻¹. This molecule also came in with a t1/2 of 3.3 min.

For the molecule B2, the “100 nM Ag Bound” value worked out at 26 RU; the affinity, expressed as Kd, was 18 nM; the koff came to 0.0157 s⁻¹; the kon came out at 871000 M⁻¹ s⁻¹. Also, the t1/2 stood at 0.7 min.

As to B3, the “100 nM Ag Bound” value was determined as 7 RU, binding was put at a Kd of 113 nM, the koff was found to be 0.0691 s⁻¹ and the kon was determined as 611000 M⁻¹ s⁻¹. Further, the t1/2 was determined as 0.2 min.

Turning to B4, the “100 nM Ag Bound” value worked out at 44 RU, binding was characterised by a dissociation constant (Kd) of 2.58 nM, the dissociation rate constant (koff) was 0.00105 s⁻¹ and the kon was 407000 M⁻¹ s⁻¹. The t1/2 turned out to be 11 min.

Regarding B5, the “100 nM Ag Bound” value came to 49 RU, the Kd turned out to be 103 nM, the koff turned out to be 0.00782 s⁻¹ and the kon amounted to 76000 M⁻¹ s⁻¹. This molecule yielded a t1/2 of 1.5 min.

Take B6: the “100 nM Ag Bound” value was 103 RU, binding was put at a Kd of 5.01 nM, the koff was determined as 0.00078 s⁻¹ and the kon was found to be 156000 M⁻¹ s⁻¹. Also, the t1/2 came to 15 min.

In a further assay the target is T2, Macaca fascicularis IL2Rγ extracellular …. Kind of assay: SPR Biacore 4000, mAb captured by anti-hFc, 37C, dissociation in PBS-T pH 6.0. As for the experimental part:
(§3) The dissociation rate constant (kd) for binding of IL-2Rγ reagents to purified anti-IL2Rγ monoclonal antibodies was determined using a real-time surface plasmon resonance based Biacore 4000 biosensor platform. […] The CM5 Biacore sensor surface derivatized by amine coupling with monoclonal mouse anti-human Fc antibody (GE, Catalog # BR-1008-39) was used to capture anti-IL2Rγ monoclonal antibodies expressed with human IgG4 Fc. All the IL2Rγ reagents were expressed with a C-terminal myc-myc-hexahistidine tag (subsequently referred to with a -MMH suffix). […] The dissociation of bound IL-2Rg-MMH was performed in PBS-T-pH7.4 or PBS-T-pH6.0 running buffers for 6 minutes.
(§4) Dissociation rate constants (kd) in two running buffers were determined by fitting the real-time binding sensorgrams to a 1:1 binding model using Scrubber 2.0c curve-fitting software. Values of dissociation rate for […] mAb binding to hIL-2RG-MMH and mfIL-2RG-MMH at 25° C. and 37° C. in PBS-T-pH7.4 and PBS-T-pH6.0 is shown in Table 2-1 through Table 2-8.
For the molecule B1, the “100 nM Ag Bound (RU)” value worked out at 54 RU, the koff turned out to be 0.00296 s⁻¹ and the t1/2 came out at 4 min.

For the molecule B2, the “100 nM Ag Bound (RU)” value worked out at 126 RU, the off-rate (koff) was determined as 0.0124 s⁻¹ and the t1/2 was 0.9 min.

For the molecule B3, the “100 nM Ag Bound (RU)” value came out at 13 RU.

As for B4, the “100 nM Ag Bound (RU)” value came to 146 RU, the koff came to 0.00344 s⁻¹ and the t1/2 amounted to 3.4 min.

For B5, the “100 nM Ag Bound (RU)” value is 43 RU, the koff was 0.00781 s⁻¹ and the t1/2 is 1.5 min.

As to B6, the “100 nM Ag Bound (RU)” value amounted to 91 RU, the koff was determined as 0.0015 s⁻¹ and the t1/2 came out at 8 min.

For another assay the target is unchanged. Kind of assay: SPR Biacore 4000, mAb captured by anti-hFc, 37C, dissociation in PBS-T pH 7.4. Here is the method: as §3, §4
As for B1, the “100 nM Ag Bound (RU)” value worked out at 76 RU, the dissociation rate constant (koff) turned out to be 0.000894 s⁻¹ and the t1/2 is 13 min.

For B2, the “100 nM Ag Bound (RU)” value worked out at 133 RU, the koff came out at 0.00267 s⁻¹ and the t1/2 amounted to 4 min.

Take B3: the “100 nM Ag Bound (RU)” value amounted to 17 RU.

Consider B4, for which the “100 nM Ag Bound (RU)” value is 185 RU, the koff was found to be 0.000693 s⁻¹ and the t1/2 came to 17 min.

On to B5, for which the “100 nM Ag Bound (RU)” value was 58 RU, the koff was 0.00362 s⁻¹ and the t1/2 was 3.2 min.

As to B6, the “100 nM Ag Bound (RU)” value stood at 100 RU, the koff was determined as 0.000512 s⁻¹ and the t1/2 amounted to 23 min.
